The values that follow are results of earlier work, collected in article PMC6181577.

The data set addresses UBQLN2 UBA (Homo sapiens) (UniProt Q9UHD9).

Chain of UBQLN2 UBL (Q9UHD9 33-107): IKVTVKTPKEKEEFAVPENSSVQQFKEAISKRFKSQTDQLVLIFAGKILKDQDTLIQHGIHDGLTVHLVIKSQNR
Chain of UBQLN2 UBA (Homo sapiens) (Q9UHD9 578-624): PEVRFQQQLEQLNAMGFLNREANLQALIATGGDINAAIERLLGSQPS

By Kd is commonly meant the concentration at which binding is half-saturated. As for UBQLN2 UBL (from UniProt Q9UHD9), the dissociation constant Kd is 175 µM.
